The Km is the concentration of substrate that gives half-maximal velocity. A word on the Vmax: it is the top rate of the reaction or transport when substrate is in excess.

This is an account of results in US11346848B2, “Γ-secretase stabilizing compound screening assay” (VIB VZW, priority 2017, dated 2022).

The subject of series [1] is CC[C@H](C)[C@H](NC(=O)[C@H](C)NC(=O)CNC(=O)[C@H](CCCCN)NC(=O)[C@H](CC(N)=O)NC(=O)[C@H](CO)NC(=O)CNC(=O)[C@@H](NC(=O)[C@H](CC(=O)O)NC(=O)[C@H](CCC(=O)O)NC(=O)[C@H](C)NC(=O)[C@H](Cc1ccccc1)NC(=O)[C@H](Cc1ccccc1)NC(=O)[C@@H](NC(=O)[C@H](CC(C)C)NC(=O)[C@H](CCCCN)NC(=O)[C@H](CCC(N)=O)NC(=O)[C@H](Cc1c[nH]cn1)NC(=O)[C@H](Cc1c[nH]cn1)NC(=O)[C@@H](NC(=O)[C@H](CCC(=O)O)NC(=O)[C@H](Cc1ccc(O)cc1)NC(=O)CNC(=O)[C@H](CO)NC(=O)[C@H](CC(=O)O)NC(=O)[C@H](Cc1c[nH]cn1)NC(=O)[C@H](CCCNC(=N)N)NC(=O)[C@H](Cc1ccccc1)NC(=O)[C@H](CCC(=O)O)NC(=O)[C@H](C)NC(=O)[C@@H](N)CC(=O)O)C(C)C)C(C)C)C(C)C)C(=O)N[C@H](C(=O)NCC(=O)N[C@@H](CC(C)C)C(=O)N[C@@H](CCSC)C(=O)N[C@H](C(=O)NCC(=O)NCC(=O)N[C@H](C(=O)N[C@H](C(=O)N[C@H](C(=O)N[C@@H](C)C(=O)N[C@H](C(=O)N[C@H](C(=O)N[C@H](C(=O)N[C@H](C(=O)O)C(C)C)[C@@H](C)CC)C(C)C)[C@@H](C)O)[C@@H](C)CC)C(C)C)C(C)C)C(C)C)[C@@H](C)CC. Kind of series: purified protein, by the assay type.

Series [2] has as its system CC[C@H](C)[C@H](NC(=O)[C@@H](NC(=O)[C@@H](NC(=O)[C@H](C)NC(=O)[C@@H](NC(=O)[C@@H](NC(=O)[C@@H](NC(=O)CNC(=O)CNC(=O)[C@@H](NC(=O)[C@H](CCSC)NC(=O)[C@H](CC(C)C)NC(=O)CNC(=O)[C@@H](NC(=O)[C@@H](NC(=O)[C@H](C)NC(=O)CNC(=O)[C@H](CCCCN)NC(=O)[C@H](CC(N)=O)NC(=O)[C@H](CO)NC(=O)CNC(=O)[C@@H](NC(=O)[C@H](CC(=O)O)NC(=O)[C@H](CCC(=O)O)NC(=O)[C@H](C)NC(=O)[C@H](Cc1ccccc1)NC(=O)[C@H](Cc1ccccc1)NC(=O)[C@@H](NC(=O)[C@H](CC(C)C)NC(=O)[C@H](CCCCN)NC(=O)[C@H](CCC(N)=O)NC(=O)[C@H](Cc1c[nH]cn1)NC(=O)[C@H](Cc1c[nH]cn1)NC(=O)[C@@H](NC(=O)[C@H](CCC(=O)O)NC(=O)[C@H](Cc1ccc(O)cc1)NC(=O)CNC(=O)[C@H](CO)NC(=O)[C@H](CC(=O)O)NC(=O)[C@H](Cc1c[nH]cn1)NC(=O)[C@H](CCCNC(=N)N)NC(=O)[C@H](Cc1ccccc1)NC(=O)[C@H](CCC(=O)O)NC(=O)[C@H](C)NC(=O)[C@@H](N)CC(=O)O)C(C)C)C(C)C)C(C)C)[C@@H](C)CC)[C@@H](C)CC)C(C)C)C(C)C)C(C)C)[C@@H](C)CC)[C@@H](C)O)C(C)C)C(=O)O. As to the kind of experiment: purified protein, by the assay type.

For another series, the system named is γ-secretase. As to conditions: Chávez-Gutiérrez et al., 2012; Funamoto et al., 2013; read-out: Km (substrate affinity constant); cited from earlier work.

In the case of “wild type human γ-secretase (PSEN1/APH1a) (Homo sapiens)”, the Km worked out at 3.3 µM in series [1] (other: 37° C., 37.0 °C); 2.3 µM in series [1] (other: 51° C., […]); 3 µM in series [1] (other: summary of Table 2); 2.9 µM in series [2] (other: 37° C., 37.0 °C); 1.7 µM in series [2] (other: 45° C., […]); 1.4 µM in series [2] (other: 51° C., […]). Also, in series [2] (other: summary of Table 2), the Km was 3 µM. The Vmax in series [1] (other: 37° C., 37.0 °C) came to 606.3 nM/h; in series [1] (other: 51° C., […]), 348.8 nM/h; in series [2] (other: 37° C., 37.0 °C), 545.2 nM/h; in series [2] (other: 45° C., […]) it was 274.3 nM/h; in series [2] (other: 51° C., […]), 97.45 nM/h.
Take “APP-C99: human Amyloid beta precursor protein C99 fragment (99 aa), natural γ-secretase substrate”: the Michaelis constant (Km) in the series with γ-secretase was 0.4 to 0.8 µM.
